Experimental data reported in patent publication US20230118307A1, “THERAPEUTIC USE OF LONG-ACTING CONJUGATE OF TRIPLE AGONIST HAVING ACTIVITIES TO ALL OF GLUCAGON/GLP-1/GIP RECEPTORS FOR LUNG DISEASE” (HANMI PHARM. CO., LTD., priority 2020, published 2023).
Positions of bridges follow the written chain, without caps; N, C: chain ends. Non-standard residues stand in square brackets, D forms with d. No end group written: not given here. *: point of attachment. Acetyl(2-(4-imidazolyl)) = O=C(Cc1c[nH]cn1)*; Aib = CC(C)(N)C(=O)O

B1: triple agonist of SEQ ID NO: 74 (peptide)
peptide: [Acetyl(2-(4-imidazolyl))][Aib]QGTFTSDYSKCLDEKRAKEFVQWLLDHHPSSGQPPPS
modifications: bridge 16-20
B2: triple agonist of SEQ ID NO: 62 (peptide)
peptide: {Acetyl(2-(4-imidazolyl))}-[Aib]QGTFTSDKSKYLDERAAQDFVQWLLDGGPSSGAPPPS
modifications: ends and bridges not checked
B3: triple agonist of SEQ ID NO: 7 (peptide)
peptide: H[Aib]QGTFTSDVSKYLDGQAAKEFVAWLLKGC
B4: triple agonist of SEQ ID NO: 77 (peptide)
peptide: Y[Aib]QGTFTSDYSKYLDEKAAKDFVQWLLDHHPSSGQPPPSC
modifications: bridge 16-20
B5: triple agonist of SEQ ID NO: 69 (peptide)
peptide: Y[Aib]QGTFTSDYSKCLDERAAKEFVQWLLDHHPSSGQPPPS
modifications: bridge 16-20
B6: triple agonist of SEQ ID NO: 58 (peptide)
peptide: H[Aib]QGTFTSDYSKYLDEKRQKEFVQWLLNTKC
modifications: bridge 16-20
B7: triple agonist of SEQ ID NO: 75 (peptide)
peptide: Y[Aib]QGTFTSDYSKYLDEKAAKEFVQWLLDHHPSSGQPPPSC
modifications: bridge 16-20
B8: triple agonist of SEQ ID NO: 71 (peptide)
peptide: Y[Aib]QGTFTSDYSKYLDERACKDFVQWLLDHHPSSGQPPPS
modifications: bridge 16-20
B9: triple agonist of SEQ ID NO: 76 (peptide)
peptide: Y[Aib]QGTFTSDYSKYLDEKRAKDFVQWLLDHHPSSGQPPPSC
modifications: bridge 16-20
B10: triple agonist of SEQ ID NO: 61 (peptide)
peptide: {Acetyl(2-(4-imidazolyl))}-[Aib]QGTFTSDYSIAMDEIACKDFVNWLLNTK
modifications: bridge 15-19
B11: triple agonist of SEQ ID NO: 79 (peptide)
peptide: H[Aib]EGTFTSDYSIAMDEIHQKDFVNWLLAQKC
modifications: bridge 16-20
B12: triple agonist of SEQ ID NO: 70 (peptide)
peptide: Y[Aib]QGTFTSDYSKCLDEKRAKDFVQWLLDHHPSSGQPPPS
modifications: bridge 16-20
B13: triple agonist of SEQ ID NO: 81 (peptide)
peptide: [Acetyl(2-(4-imidazolyl))][Aib]QGTFTSDYSKYLDEKRQKEFVQWLLNTC
modifications: bridge 16-20
B14: triple agonist of SEQ ID NO: 78 (peptide)
peptide: H[Aib]QGTFTSDYSKYLDEKRQKEFVQWLLDTKC
modifications: bridge 16-20
B15: triple agonist of SEQ ID NO: 63 (peptide)
peptide: {Acetyl(2-(4-imidazolyl))}-[Aib]QGTFTSDCSKYLDERAAQDFVQWLLDGGPSSGAPPPS
modifications: ends and bridges not checked
B16: triple agonist of SEQ ID NO: 60 (peptide)
peptide: {Acetyl(2-(4-imidazolyl))}-[Aib]QGTFTSDYSIAMDEKHCKDFVNWLLNTK
modifications: bridge 15-19
B17: triple agonist of SEQ ID NO: 59 (peptide)
peptide: {Acetyl(2-(4-imidazolyl))}-[Aib]QGTFTSDYSICMDEKHQKDFVNWLLNTK
modifications: bridge 15-19
B18: triple agonist of SEQ ID NO: 66 (peptide)
peptide: Y[Aib]QGTFTSDYSKYLDECRAKDFVQWLLDHHPSSGQPPPS
modifications: bridge 16-20
B19: triple agonist of SEQ ID NO: 73 (peptide)
peptide: [Acetyl(2-(4-imidazolyl))][Aib]QGTFTSDYSKYLDECRAKEFVQWLLDHHPSSGQPPPS
modifications: bridge 16-20
B20: triple agonist of SEQ ID NO: 72 (peptide)
peptide: Y[Aib]QGTFTSDCSKYLDERAAKDFVQWLLDHHPSSGQPPPS
modifications: bridge 16-20
B21: triple agonist of SEQ ID NO: 64 (peptide)
peptide: Y[Aib]QGTFTSDYSKYLDECAAKEFVQWLLDHHPSSGQPPPS
modifications: bridge 16-20
B22: triple agonist of SEQ ID NO: 67 (peptide)
peptide: Y[Aib]QGTFTSDYSKYLDECAAKDFVQWLLDHHPSSGQPPPS
modifications: bridge 16-20
B23: triple agonist of SEQ ID NO: 65 (peptide)
peptide: H[Aib]QGTFTSDYSKCLDEKRAKEFVQWLLDHHPSSGQPPPS
modifications: bridge 16-20
B24: triple agonist of SEQ ID NO: 68 (peptide)
peptide: Y[Aib]QGTFTSDYSKCLDEKAAKEFVQWLLDHHPSSGQPPPS
modifications: bridge 16-20
B25: triple agonist of SEQ ID NO: 80 (peptide)
peptide: H[Aib]EGTFTSDYSIAMDEIHQKDFVDWLLAEKC
modifications: bridge 16-20
B26: triple agonist of SEQ ID NO: 8 (peptide)
peptide: H[Aib]QGTFTSDVSKYLDGQAAQEFVAWLLKGC

Key:
Test in all cases: cell-based or functional assay
human GLP-1 receptor = human GLP-1 receptor (human, UniProt P43220 24-463)
human GCG receptor = human GCG receptor (human, UniProt P47871 26-477)
human GCG receptor, sequence (P47871 26-477): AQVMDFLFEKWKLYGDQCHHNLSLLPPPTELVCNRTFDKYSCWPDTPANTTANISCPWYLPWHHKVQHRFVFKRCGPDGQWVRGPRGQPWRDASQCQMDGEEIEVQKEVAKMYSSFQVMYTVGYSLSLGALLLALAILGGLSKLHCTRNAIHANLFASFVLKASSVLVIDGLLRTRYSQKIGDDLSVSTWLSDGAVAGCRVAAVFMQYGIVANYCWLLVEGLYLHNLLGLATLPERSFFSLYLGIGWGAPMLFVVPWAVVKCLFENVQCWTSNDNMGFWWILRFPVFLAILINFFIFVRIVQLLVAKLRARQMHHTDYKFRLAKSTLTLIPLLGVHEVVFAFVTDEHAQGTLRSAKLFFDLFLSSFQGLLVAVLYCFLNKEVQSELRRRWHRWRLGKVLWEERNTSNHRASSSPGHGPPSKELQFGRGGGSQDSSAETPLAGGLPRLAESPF

human GIP receptor = target: T1, human GIP receptor (human, UniProt P48546 22-466)
T1 sequence (looked up): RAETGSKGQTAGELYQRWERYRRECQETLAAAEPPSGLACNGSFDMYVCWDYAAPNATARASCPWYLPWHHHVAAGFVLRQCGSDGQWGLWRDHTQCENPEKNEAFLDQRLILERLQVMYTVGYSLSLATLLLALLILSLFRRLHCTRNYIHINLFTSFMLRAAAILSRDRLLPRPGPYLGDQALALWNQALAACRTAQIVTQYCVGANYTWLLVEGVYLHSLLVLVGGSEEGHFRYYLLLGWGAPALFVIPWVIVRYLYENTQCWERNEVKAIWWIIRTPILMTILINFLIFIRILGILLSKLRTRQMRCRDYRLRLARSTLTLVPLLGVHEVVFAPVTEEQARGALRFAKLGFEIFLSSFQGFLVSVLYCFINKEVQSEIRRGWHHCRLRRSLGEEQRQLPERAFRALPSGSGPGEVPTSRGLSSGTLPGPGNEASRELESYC

Row | Binder | In vitro Activity Compared to Native Peptide (%) vs. GLP-1 (human GLP-1 receptor) | In vitro Activity Compared to Native Peptide (%) vs. Glucagon (human GCG receptor) | In vitro Activity Compared to Native Peptide (%) vs. GIP (human GIP receptor)
1 | B1 | 12.9% | 0.9% | 1%
2 | B2 | 5.2% | < 0.1% | < 0.1%
3 | B3 | 13.7% | < 0.1% | < 0.1%
4 | B4 | 38.7% | 12.2% | 35.5%
5 | B5 | 24.3% | 9.6% | 62.8%
6 | B6 | 39.1% | 2.6% | 0.2%
7 | B7 | 35.1% | 8.5% | 18%
8 | B8 | 90.1% | 12.7% | 94.7%
9 | B9 | 10.3% | 47.6% | 11.7%
10 | B10 | 59.8% | < 0.1% | 2.8%
11 | B11 | 41.5% | 4.9% | 1.4%
12 | B12 | 15.1% | 71.3% | 64.4%
13 | B13 | 7.8% | 0.3% | < 0.1%
14 | B14 | 51% | 14% | 0.12%
15 | B15 | 15.3% | < 0.1% | < 0.1%
16 | B16 | 106% | < 0.1% | 8.2%
17 | B17 | 40.3% | < 0.1% | 4%
18 | B18 | 15.8% | 172% | 17.2%
19 | B19 | 22.6% | 5.4% | 3%
20 | B20 | 11.5% | 1% | 1.6%
21 | B21 | 64.6% | 60.1% | 92.9%
22 | B22 | 28.5% | 46.2% | 39.8%
23 | B23 | 95.4% | 25.2% | 11.6%
24 | B24 | 27.9% | 8.8% | 107%
25 | B25 | 8.1% | 0% | 0.1%
26 | B26 | 14.2% | 0.1% | < 0.1%
